According to patent publication US20180312557A1, “Leg1 Protein, Leg1 Gene, and Uses and Drugs thereof” (ZHEJIANG UNIVERSITY, priority 2016, published 2018):

What was measured:
[1] = Body weight increase of wild type mice on high-fat diet with intragastric mLeg1-Re; type: in vivo, mouse; conditions: 20 μg intragastric every day, one month
Procedure: 23.4 10-weeks old wild type mice having the similar body weight (t1) were randomly divided into 3 groups with 3 to 4 mice in each group. The wild type mice were fed with high-fat diet and intragrastric administration with 20 μg of mLeg1-Re protein every day, which served as mLeg1-Re administration experimental group. Another group of wild type mice of the same age were fed with the same high-fat diet and intragrastric administration with the same amount of bovine serum albumin (BSA) every day, which served as BSA administration control group. The left group of wild type mice at the same age were fed with the same standard chow diet, which served as another control group. One month later, the body weight (t2) of these mice were measured, and the results were represented by increased body weight […]. The experiment was repeated twice, and the final body weight changes (i.e., increased body weight) were averaged.

[2] = system: Akt phosphorylation of the HepG2 cells; experiment: Akt phosphorylation of HepG2 cells incubated with recombinant mLeg1-Re, alone or with wild-type mLeg1; type: cell-based, human
Procedure: 23.3 The extracted recombinant protein mLeg1-Re and the wild type mLeg1 protein were used to incubate the HepG2 cells, and then the Akt phosphorylation level of the HepG2 cell was detected. As to the details, reference can be made to step 18.2.2.
The partially purified wild-type mLeg1 protein (50 ng) was mixed with excess mLeg1-Re protein (500 ng) for 10 minutes, and then used to incubate HepG2 cell for 10 minutes, and then the Akt phosphorylation level was detected in these cells. […] It is highly likely attributed to the fact that the mLeg1-Re protein is also capable of competitively binding to the EGFR, thereby blocking the ability of the wild-type mLeg1 to bind to the EGFR and activate downstream Akt.

EGFR = molecular target: T1, EGFR (Mus musculus, UniProt Q01279); experiment: EGFR pulled down with mLeg1-Re from liver after intragastric administration (co-immunoprecipitation); type: in vivo; conditions: liver of mLeg1Δ/Δ mice, two hours after the intragastric administration
T1 construct: from tissue; host or cells: liver of mLeg1^Δ/Δ mice
Source text: (§1) In order to further verify this hypothesis, the inventors administered the mLeg1-Re protein to the mLeg1^Δ/Δ mice by intragastric administration, and detected, by the method of co-immunoprecipitation, whether the mLeg1-Re protein could reach the liver and bind to EGFR in the liver.

[3] = mLeg1-Re protein in liver of mLeg1Δ/Δ mice after intragastric administration (co-immunoprecipitation); type: in vivo, mouse; conditions: two hours after the intragastric administration
Source text: as §1

B1: mLeg1-Re protein: modification-defective recombinant mLeg1 protein expressed in an Escherichia coli expression system (protein)
chain: EVSDSSDPYPPLWEDSPEQLSDYMMEDGNYIINPWVYTDRMGMYRILLEETAMYFAKYGPENEQNLLWGLPLQFGWQYQSGRLADPTGMTDCGNELNESLCVSVDSWWADINYYLSVIPFLAAVDSGITGISPNQITILPPPKDQMRFCYNVSDCQSAVPGTMNRWRDFFQYMQLNSSDFDGLLNYLWEAHASSLDYPTSAFGDRYNFYSEKEANFEENWAIAVNYLAAARLPTTQNRTYSFQRGLPPRVLVDTDIAPFIPDFTPLQNEVLVSLKLLGDTDRNSGSLSLTLWENLMSTKLARTLFLKAFEEFLATSS
modifications: left off: small tags and cut ends
notes: modification-defective recombinant mLeg1 protein expressed in an Escherichia coli expression system
- body weight increase compared with BSA control group [1]: significantly lower
- body weight increase compared with mice fed standard chow diet [1]: almost the same as that of the mice fed with standard chow diet
- ability to induce Akt phosphorylation ([2]; HepG2 incubated with mLeg1-Re alone): lost the ability to induce Akt phosphorylation
- ability of the mLeg1 protein to activate Akt ([2]; HepG2 incubated with mLeg1-Re for 10 minutes first, then mLeg1 added): completely inhibited
- inhibition of mLeg1-induced Akt phosphorylation ([2]; mLeg1 (50 ng) mixed with excess mLeg1-Re (500 ng) for 10 minutes, then HepG2 10 minutes): cannot inhibit the functions of the mLeg1 protein
- EGFR in the protein pulled down by the mLeg1 antibody (EGFR): significant EGFR protein level could be detected
- mLeg1-Re protein in the liver [3]: could be detected in the liver
